Results: patent US20150290235A1, “USE OF SMALL MOLECULE INHIBITORS/ACTIVATORS IN COMBINATION WITH (DEOXY)NUCLEOSIDE OR (DEOXY)NUCLEOTIDE ANALOGS FOR TREATMENT OF CANCER AND HEMATOLOGICAL MALIGNANCIES OR VIRAL INFECTIONS” (AB SCIENCE, priority 2012, published 2015)

Tested on: Nc1ccn([C@@H]2O[C@H](CO)[C@@H](O)C2(F)F)c(=O)n1
Experiment: cells, lysate or membranes named
Conditions: other: ATP donor, 10 nM dCK, no masitinib

Sequence of human deoxycytidine kinase (dCK) (Homo sapiens) (chain, as listed by the source): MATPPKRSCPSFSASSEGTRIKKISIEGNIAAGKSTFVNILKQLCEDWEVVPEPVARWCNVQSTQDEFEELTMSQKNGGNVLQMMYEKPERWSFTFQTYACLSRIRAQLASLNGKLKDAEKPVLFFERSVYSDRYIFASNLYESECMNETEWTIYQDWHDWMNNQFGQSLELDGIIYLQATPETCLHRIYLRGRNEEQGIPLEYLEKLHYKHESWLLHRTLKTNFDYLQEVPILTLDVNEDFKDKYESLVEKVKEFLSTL

Substance “human deoxycytidine kinase (dCK) (Homo sapiens)” has a Km of 1 ± 0.3 µM.
